The target of one experiment is T1, HLA-A*02:01 (Homo sapiens, UniProt P04439, D140Y/D185E/D98H/E176V/E277Q/G131W/G231S/I119V/I121R/I166T/I218V/L300P/L318F/N151K/N90K/P208A/P217A/Q86G/Q94H/R138H/R169H/T345S).
T1 construct: expressed in transfected cells; host or cells: HeLaM-HLA-ABC-KO
In kind it is cell-based. The settings on record: ETV* (HLA-A*68:02) and SRY* (HLA-B*27) controls. As to the method:
(g) Dose response curves of IFN-γ treated HeLaM and HeLaM-HLA-ABC^KO cells treated −/+100 nM TAPBPR with increasing concentrations of ETVSK*QSNV for 15 min at 37° C. Line graphs show MFI−/+s.e.m from three independent experiments. […] (h) Histograms of the typical fluorescent peptide binding observed using flow cytometry. (i) Bar graphs showing the MFI of fluorescent peptide binding to HeLaM HLA-ABC^KO+A2−/+s.e.m from two independent experiments with duplicates. ***P≤0.001, ****P≤0.0001, n/s not significant, using unpaired two-tailed t-test.
(§1) Target cell lines were seeded at 25,000-30,000 cells/well in 12-well plates and stimulated with IFN-γ. Following the stimulation period, the cells were washed 3 times with 1×PBS and incubated with 300 μL pre-warmed opti-MEM (Thermo Fisher Scientific, UK). In case the peptide binding was done in the presence of recombinant TAPBPR, the cells were then treated with or without recombinant TAPBPR (100 nM for HLA-A*68:02 or 1 μM for HLA-A*02:01). After 15 min, the desired TAMRA-labelled peptide was added to the cells and incubated at 37° C. (15 min for HLA-A*68:02 or 60 min for HLA-A*02:01). In case the peptide binding was facilitated by over-expressed TAPBPR, the labelled peptide was directly added to the cells, without using recombinant TAPBPR. […] The level of bound peptide/cell was determined by flow cytometry, using the YelFL1 channel (Cytek).

Another experiment addresses T2, H-2K^b expressed on EL4 (Mus musculus, UniProt P01901).
T2 construct: surface expressed H-2K^b are relatively more peptide receptive compared to human MHC I molecules; endogenous in cells; host or cells: EL4 (murine tumour cell line)
T2 sequence (P01901 22-369): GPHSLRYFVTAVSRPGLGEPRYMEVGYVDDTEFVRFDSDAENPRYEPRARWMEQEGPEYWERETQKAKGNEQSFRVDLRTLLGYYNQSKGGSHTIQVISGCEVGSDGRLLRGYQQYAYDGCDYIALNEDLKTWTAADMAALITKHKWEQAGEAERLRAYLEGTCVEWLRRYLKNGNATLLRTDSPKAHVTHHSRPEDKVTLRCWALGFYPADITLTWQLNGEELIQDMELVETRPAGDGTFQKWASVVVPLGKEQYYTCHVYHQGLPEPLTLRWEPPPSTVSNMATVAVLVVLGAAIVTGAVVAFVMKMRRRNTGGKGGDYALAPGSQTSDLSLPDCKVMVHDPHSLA
T2 sequence (P01887 21-119 partner): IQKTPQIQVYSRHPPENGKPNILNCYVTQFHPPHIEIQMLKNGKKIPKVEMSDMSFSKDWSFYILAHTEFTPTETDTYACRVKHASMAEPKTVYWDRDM
Kind of experiment: […] loading on EL4 cells (SIINFEK*L and 25-D1.16 mAb). The settings on record: 1 μM TAPBPR, 1 nM peptide 30 min. It counts as cell-based, murine. The method, then:
Histograms are representative of three independent experiments. (19d) Bar graphs show the MFI of 25-D1.16−/+SD from three independent experiments. (19e) OT1 killing of EL4 cells treated −/+1 μM soluble TAPBPR^WT or TAPBPR^TN5, followed by incubation with 1 nM […] peptide. Error bars−/+s.e.m from triplicate wells. Data is representative of three independent experiments. Note: surface expressed H-2K^b are relatively more peptide receptive compared to human MHC I molecules. […] As OT1 T cells are highly efficient cytotoxic cells, killing 80-100% of targets after 1-4 hours, we decreased the concentration of […] used in these experiments to 1 nM in order to differentiate between TAPBPR-mediated and background peptide binding, otherwise we would not observe an additive effect of soluble TAPBPR on target cell killing.

Experiment [1] deals with T3, HLA-A*02:01 naturally expressed on MCF-7 (Homo sapiens, UniProt P04439, D140Y/D185E/D98H/E176V/E277Q/G131W/G231S/I119V/I121R/I166T/I218V/L300P/L318F/N151K/N90K/P208A/P217A/Q86G/Q94H/R138H/R169H/T345S).
T3 construct: onto HLA-A*02:01 naturally expressed on MCF-7, a breast cancer cell line; endogenous in cells
Nature of the experiment: Fluorescent peptide loading onto MCF-7 cells by soluble TAPBPR. It counts as cell-based. The method, then: (YLL) followed by staining with the TCR-like mAb L1 specific for […]/HLA-A2 complexes. (6d) The MFI of L1 binding to MCF-7 cells −/+SD from three independent experiments. (6e) Bar graphs show T cell activity measured by IFN-γ secretion in fluorospot assays of a HLA-A2 restricted […] specific CD8+ T cell line when incubated with MCF-7 target cells as treated in FIG. 6b with the exception that non-fluorescent […] peptide at 100 pM was used. […] Error bars−/+SD. Note: In FIGS. 6a, 6b, & 6e IFNγ treated cells were used.
as §1

Experiment [2] deals with T4, HLA-A68 (MHC class I) expressed on HeLa (Homo sapiens, UniProt P04439, A269V/D140Y/D185E/E176V/E277Q/E87N/F33Y/G231S/I121R/I166T/I218V/L180W/L300P/L318F/N151K/P208A/P217A/Q86R/R138H/R169H/S129P/T345S/V36M).
T4 construct: HLA-A68 (MHC class I) expressed on HeLa; endogenous in cells; host or cells: HeLaM and derivatives (TAPBPR-KO with or without TAPBPR/tapasin constructs, +Her2, Her2-KO, +PDL1, pD-GFP); in some arms HeLaM-HLA-ABC-KO re-expressing HLA-A*68:02
Kind of experiment: ETV* peptide loading on HeLaM and HeLaM-pD-GFP cells. The following applies: 1 nM recombinant protein. In kind it is cell-based.

B1: soluble TAPBPR^WT: secreted His-tagged luminal domain of human TAPBPR, lacking transmembrane domain and cytoplasmic tail; SEQ ID NO: 2 (protein)
chain: KPHPAEGQWRAVDVVLDCFLVKDGAHRGALASSEDRARASLVLKQVPVLDDGSLEDFTDFQGGTLAQDDPPIIFEASVDLVQIPQAEALLHADCSGKEVTCEISRYFLQMTETTVKTAAWFMANVQVSGGGPSISLVMKTPRVAKNEVLWHPTLNLPLSPQGTVRTAVEFQVMTQTQSLSFLLGSSASLDCGFSMAPGLDLISVEWRLQHKGRGQLVYSWTAGQGQAVRKGATLEPAQLGMARDASLTLPGLTIQDEGTYICQITTSLYRAQQIIQLNIQASPKVRLSLANEALLPTLICDIAGYYPLDVVVTWTREELGGSPAQVSGASFSSLRQSVAGTYSISSSLTAEPGSAGATYTCQVTHISLEEPLGASTQVVPPERR
modifications: His tag; TAPBPR luminal domain (mature sequence without 21 aa leader sequence)
Take B1: the “binding of peptides specific for other MHC class I molecules onto HLA-A2” value in the experiment with HLA-A*02:01 is recorded as “did not promote the binding”. Besides, in the experiment with H-2K^b expressed on EL4, the “loading of SIINFEKL onto H-2K^b” value is “significantly enhanced the loading of SIINFEKL”. The “loading of fluorescent derivatives of tumour antigens IMDQVPFSV, […], LLGRNSFEV and RLLQETELV” value in experiment [1] (1 μM TAPBPR 15 min, 10 nM peptide 60 min) is recorded as “significantly enhanced the loading”. In addition, the “association of YLLEK*LWRL and NLVPK*VATV onto HLA-A2” value in experiment [1] (versus peptide alone or TAPBPR^TN5) is “enhanced the association”. Moreover, in experiment [2], the “exogenous peptide loading onto antibody-target expressing cells at 1 nM protein” value is listed as “no peptide loading”.

These data come from US12397036B2, “Peptide exchange protein” (Cambridge Enterprise Limited, priority 2018, dated 2025).
